Two molecules from patent US20200399344A1 (SHATTUCK LABS, published 2020) can be followed below.

Values joined by “and” are separate entries in the source; they are usually repeats but may differ in a detail not shown here. Identical values can stand only once.

Experiment [1] deals with T1, mCTLA-4, plate-bound (mouse, UniProt P09793 36-162, limits assumed). Description: ELISA (single-sided): coat mCTLA-4 (R&D), detect Anti-mFc-HRP (Jax). Background: An ELISA detects its analyte on a solid surface through an enzyme-linked reagent.
Experiment [2] deals with T2, HLA class I histocompatibility antigen, alpha chain E (HLA-E), plate-bound recombinant protein (human, UniProt P13747 22-305, limits assumed).
T2 construct: no tag named there; also called recombinant HLA-E protein
Description: ELISA (single-sided): coat hHLA-E (Novus), detect Anti-mFc-HRP (Jax).

The target in experiment [3] is T3, recombinant mCD47 (mCD47-His) protein (mouse, UniProt Q61735 19-140, limits assumed).
T3 construct: not shown: His tag
T3 sequence (looked up): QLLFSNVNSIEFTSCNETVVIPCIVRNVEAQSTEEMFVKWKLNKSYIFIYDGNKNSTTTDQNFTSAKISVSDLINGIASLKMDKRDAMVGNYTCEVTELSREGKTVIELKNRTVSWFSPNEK
Description: dual/PK ELISA; coat αNKG2a (1:10k), mCD86-fc-NKG2a titrated, detection mCD47-His (5ug/ml), His-HRP. The method, then: Increasing amounts of the mSIRPα-Fc-NKG2A chimeric protein was added and detected using mCD47-His. The CD86-Fc-NKG2A chimeric protein was used as a negative control.
To understand whether the mSIRPα-Fc-NKG2A chimeric protein can binds simultaneously to both anti-NKG2a and CD47, the following ELISA experiment was carried out. Briefly, and anti-NKG2a antibody was coated on plates. Increasing amounts of the mSIRPα-Fc-NKG2A and mCD48-Fc-NKG2A chimeric proteins were added to the plates for capture by the anti-NKG2a antibody. Further, recombinant mCD47 (mCD47-His) protein was added to the plate for capture by mSIRPα-Fc-NKG2A chimeric protein. The binding of the mCD47-His protein was detected using an anti-His HRP antibody.

A further experiment deals with T4, goat anti-mCD48 antibody.
T4 construct: also called anti-CD48; Anti-CD48
Description: Dual binding ELISA: coat mHLA-E (Novus) as printed, detect Anti-mCD48 (R&D), HRP Anti-Goat HRP; flat curve.

The target of experiment [4] is T1, mCTLA-4, plate-bound. Description: ELISA (single-sided): coat mCTLA-4 (R&D), detect Anti-mFc-HRP (Jax); curve near the baseline, about 0.25 only at the highest concentration.
Experiment [5] concerns the target T5, PD-L1, plate-bound (Example 8) (Homo sapiens (Human), UniProt Q9NZQ7 19-238).
T5 construct: not shown: The Fc carrier of the vendor's hPD-L1-Fc (R&D) and any linker
Put plainly: Dual ELISA (capturing with PDL1): coat hPDL1-Fc (R&D), detect hHLA-E (Novus), HRP Anti-6X His; curve low, about 0.45 at the highest concentration.

The target of experiment [6] is T6, recombinant human CD28-His (rhCD28-His) (human, UniProt P10747 19-152).
T6 construct: also called Human CD28-His protein; recombinant CD28 protein; not shown: His tag
Description: ELISA: coat rhCD28-His (Acro), detection Anti-hFc-HRP. The method, then: To understand whether the CD80 and CD86 parts of the hCD80-Fc-NKG2A and hCD86-Fc-NKG2A chimeric protein can bind CD28, ELISA-based assays were performed. Briefly, recombinant CD28 protein was coated on plates and increasing amounts of the hCD80-Fc-NKG2A, hCD86-Fc-NKG2A, and mCD48-Fc-NKG2A chimeric proteins, and recombinant human CD86-Fc (rhCD86-Fc) protein was added to the plates for capture by the plate-bound recombinant CD28 protein. The mCD48-Fc-NKG2A chimeric protein, and recombinant human CDrhCD86-Fc protein was used as negative and positive controls, respectively. The chimeric proteins bound to the recombinant CD28 protein was detected using an anti-human Fc HRP.

Experiment [7] concerns the target T7, recombinant human 2B4-Fc fusion protein (rh2B4-Fc) (human, UniProt Q9BZW8-2 22-221, limits assumed).
T7 construct: not shown: Fc
T7 sequence (looked up): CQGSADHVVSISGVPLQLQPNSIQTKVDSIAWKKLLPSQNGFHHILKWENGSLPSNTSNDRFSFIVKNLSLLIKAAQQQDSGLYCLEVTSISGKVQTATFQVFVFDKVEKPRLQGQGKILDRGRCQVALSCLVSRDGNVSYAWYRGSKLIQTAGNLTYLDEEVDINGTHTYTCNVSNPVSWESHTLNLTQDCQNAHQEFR
Description: dual ELISA; coat rh2B4-Fc, hCD86-Fc-NKG2A titrated, detection HLA-E-His, Anti 6x-His-HRP. The method, then:
(§1) (i) recombinant human 2B4-Fc fusion protein (rh2B4-Fc) was coated on plates. Increasing amounts of the hCD48-Fc-NKG2A or hCD86-Fc-NKG2A chimeric proteins were added and detected using HLA-E-His. The hCD86-Fc-NKG2A chimeric protein was used as a negative control (Negative control #1). […] (ii) recombinant human CD2-Fc fusion protein (rhCD2-Fc) was coated on plates. Increasing amounts of the hCD58-Fc-NKG2A or hCD86-Fc-NKG2A chimeric proteins were added and detected using HLA-E-His. The hCD86-Fc-NKG2A chimeric protein was used as a negative control (Negative control #2).
To understand whether the hCD48-Fc-NKG2A chimeric protein can bind simultaneously to both 2B4 and HLA-E, the following ELISA experiment was carried out. Briefly, and recombinant 2B4 (rh2B4-Fc) protein was coated on plates. Increasing amounts of the hCD48-Fc-NKG2A chimeric protein was added to the plates for capture by the recombinant human 2B4-Fc (rh2B4-Fc) protein. Further, recombinant HLA-E (HLA-E-His) protein was added to the plate for capture by hCD48-Fc-NKG2A chimeric proteins. The binding of the HLA-E-His protein was detected using an anti-His 6× HRP antibody.

The target in experiment [8] is T8, recombinant human CD2-Fc fusion protein (rhCD2-Fc) (human, UniProt P06729 25-209).
T8 construct: not shown: Fc
T8 sequence (looked up): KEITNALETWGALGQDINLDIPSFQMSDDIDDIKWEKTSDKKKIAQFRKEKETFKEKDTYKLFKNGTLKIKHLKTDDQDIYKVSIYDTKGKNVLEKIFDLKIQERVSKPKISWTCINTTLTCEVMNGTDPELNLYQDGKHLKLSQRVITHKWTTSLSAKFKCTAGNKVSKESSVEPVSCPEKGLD
Description: dual ELISA; coat rhCD2-Fc, hCD86-Fc-NKG2A titrated, detection HLA-E-His, Anti 6x-His-HRP. The method, then: as §1
To understand whether the hCD58-Fc-NKG2A chimeric protein can bind simultaneously to both CD2 and HLA-E, the following ELISA experiment was carried out. Briefly, and recombinant CD2 (rhCD2-Fc) protein was coated on plates. Increasing amounts of the hCD58-Fc-NKG2A chimeric protein was added to the plates for capture by the recombinant human CD2-Fc (rhCD2-Fc) protein. Further, recombinant HLA-E (HLA-E-His) protein was added to the plate for capture by hCD58-Fc-NKG2A chimeric proteins. The binding of the HLA-E-His protein was detected using an anti-His 6× HRP antibody.

Experiment [9] concerns the target T9, hCD28 expressed on CHO-K1/hCD28 cells (human, UniProt P10747 19-220).
T9 construct: whole, on cells; also called CHO-K1/CD28
Put plainly: flow cytometry on CHO-K1/hCD28 cells (hCD28-C1), APC-A, dose series (doses not given). How it is done:
To determine whether the hCD86-Fc-NKG2A chimeric protein can specifically bind the CHO-K1/hCD28 cells, a flow-cytometry-based assay was carried out. […] The dose dependent shifts in the flow cytometry profiles illustrate a dose-dependent binding of the hCD86-Fc-NKG2A chimeric protein to hCD28 expressed by the CHO-K1/hCD28 cells. A quantitation of binding confirmed a dose-dependent binding (FIG. 65).

For experiment [10], the target named is T10, anti-human IgG antibody (plate-bound).
T10 construct: also called anti-human Fc antibody
Put plainly: ELISA (single sided Fc): coat Anti-Human IgG (H+L) Jax# 109-005-088, detection HRP Goat anti-human FCgamma. The method, then:
Anti-human IgG was coated on plates and increasing amounts of the indicated chimeric proteins were added to the plates. hIgG was used as a positive control, and mCD80-Fc-NKG2A was used as a negative control. The binding was detected using an anti-human Fcgamma HRP.
To understand whether the Fc linkers from the native chimeric proteins can be accessed by anti-human antibodies, ELISA-based assays were performed. For these assays, an anti-human IgG antibody was coated on plates and increasing amounts of the hCD86-Fc-NKG2A and hTGFBR2-Fc-NKG2A, mCD80-Fc-NKG2a chimeric proteins, and a human IgG antibody were added to the plates for capture by the plate-bound anti-human antibody. The human IgG antibody was used as a positive control and to generate a standard curve. The mCD80-Fc-NKG2a chimeric protein was included as a negative control as containing a non-human Fc domain. The protein bound to the anti-human IgG antibody was detected using an anti-human Fcgamma HRP.

Experiment [11] deals with T11, recombinant human CD28-Fc (rhCD28-Fc) protein (human, UniProt P10747 19-152).
T11 construct: not shown: Fc
Put plainly: dual ELISA; coat rhCD28-Fc, hCD86-Fc-NKG2a titrated, detection HLA-E-His, Anti-His-6x-HRP; the signal needs both bindings. The method, then:
To understand whether the hCD86-Fc-NKG2A chimeric protein can binds simultaneously to both hCD28 and HLA-E, the following ELISA experiment was carried out. Briefly, and recombinant hCD28 (rhCD28-Fc) protein was coated on plates. Increasing amounts of the hCD86-Fc-NKG2A chimeric protein was added to the plates for capture by the rhCD28-Fc protein. Further, recombinant HLA-E (HLA-E-His) protein was added to the plate for capture by hCD86-Fc-NKG2A chimeric protein. The binding of the HLA-E-His protein was detected using an anti-His 6× HRP antibody.

Broadly, the EC50 is the concentration giving half of the maximal effect. In general, EC50 (read off the curve) refers to the concentration at which the effect is half-maximal. The low end stands for higher potency in that assay, the high end for lower potency in that assay.

T2 sequence (P13747 22-305 limits assumed): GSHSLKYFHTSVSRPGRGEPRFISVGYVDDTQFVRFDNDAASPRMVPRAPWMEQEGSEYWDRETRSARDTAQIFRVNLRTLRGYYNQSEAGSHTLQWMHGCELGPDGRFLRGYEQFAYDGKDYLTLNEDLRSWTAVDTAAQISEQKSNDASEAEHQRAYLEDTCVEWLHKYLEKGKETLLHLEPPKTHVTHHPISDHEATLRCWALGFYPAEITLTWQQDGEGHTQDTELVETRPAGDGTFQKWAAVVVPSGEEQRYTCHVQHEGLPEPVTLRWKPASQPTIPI
T9 sequence (P10747 19-220): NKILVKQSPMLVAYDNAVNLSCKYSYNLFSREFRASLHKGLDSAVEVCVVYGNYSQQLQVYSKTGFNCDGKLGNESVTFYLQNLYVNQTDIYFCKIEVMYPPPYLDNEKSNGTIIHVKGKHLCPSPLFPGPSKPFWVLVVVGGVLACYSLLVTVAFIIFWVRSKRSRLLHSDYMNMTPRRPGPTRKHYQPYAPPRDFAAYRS
T6 sequence (P10747 19-152 limits assumed): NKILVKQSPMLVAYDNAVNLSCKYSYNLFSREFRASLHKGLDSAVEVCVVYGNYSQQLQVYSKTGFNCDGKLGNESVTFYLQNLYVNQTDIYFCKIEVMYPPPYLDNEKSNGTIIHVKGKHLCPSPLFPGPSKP
T11 sequence (P10747 19-152 limits assumed): as above
T5 sequence (Q9NZQ7 19-238 limits assumed): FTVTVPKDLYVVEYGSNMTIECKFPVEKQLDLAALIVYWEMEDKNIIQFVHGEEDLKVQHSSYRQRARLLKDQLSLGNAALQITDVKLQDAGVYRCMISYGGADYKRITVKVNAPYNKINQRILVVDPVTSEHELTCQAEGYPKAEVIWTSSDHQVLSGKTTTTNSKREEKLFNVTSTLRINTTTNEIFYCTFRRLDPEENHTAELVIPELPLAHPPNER

B1: mouse CD86-Fc-NKG2A chimeric protein (Fc fusion)
chain: VSVETQAYFNGTAYLPCPFTKAQNISLSELVVFWQDQQKLVLYEHYLGTEKLDSVNAKYLGRTSFDRNNWTLRLHNVQIKDMGSYDCFIQKKPPTGSIILQQTLTELSVIANFSEPEIKLAQNVTGNSGINLTCTSKQGHPKPKKMYFLITNSTNEYGDNMQISQDNVTELFSISNSLSLSFPDGVWHMTVVCVLETESMKISSKPLNFTQEFPSPQTYWKVPRDCGCKPCICTVPEVSSVFIFPPKPKDVLTITLTPKVTCVVVDISKDDPEVQFSWFVDDVEVHTAQTQPREEQFNSTFRSVSELPIMHQDWLNGKEFKCRVNSAAFPAPIEKTISKTKGRPKAPQVYTIPPPKEQMAKDKVSLTCMITDFFPEDITVEWQWNGQPAENYKNTQPIMDTDGSYFVYSKLNVQKSNWEAGNTFTCSVLHEGLHNHHTEKSLSHSPGIIEGRMDTPYTEAKAQINSSMTRTHRDINYTLSSAQPCPHCPKEWISYSHNCYFIGMERKSWNDSLVSCISKNCSLLYIDSEEEQDFLQSLSLISWTGILRKGRGQPWVWKEDSIFKPKIAEILHDECNCAMMSASGLTADNCTTLHPYLCKCKFPI
notes: Batch 1 and Batch 2 were tested; also called mCD86-Fc-NKG2A
For the molecule B1, the EC50 is 0.000658 µM with mCTLA-4, plate-bound [1]; 0.0661 µM and 0.0832 µM in experiment [2]; around 0.00555 µM with goat anti-mCD48 antibody; around 4050 µM in the experiment with mCTLA-4, plate-bound [4]; 1.65 µM in experiment [5]. The binding result in experiment [3] is recorded as “no binding (tested: about log 1.8 ug/ml (roughly 60 ug/ml))”.

B2: human CD86-Fc-NKG2A chimeric protein (Fc fusion)
chain: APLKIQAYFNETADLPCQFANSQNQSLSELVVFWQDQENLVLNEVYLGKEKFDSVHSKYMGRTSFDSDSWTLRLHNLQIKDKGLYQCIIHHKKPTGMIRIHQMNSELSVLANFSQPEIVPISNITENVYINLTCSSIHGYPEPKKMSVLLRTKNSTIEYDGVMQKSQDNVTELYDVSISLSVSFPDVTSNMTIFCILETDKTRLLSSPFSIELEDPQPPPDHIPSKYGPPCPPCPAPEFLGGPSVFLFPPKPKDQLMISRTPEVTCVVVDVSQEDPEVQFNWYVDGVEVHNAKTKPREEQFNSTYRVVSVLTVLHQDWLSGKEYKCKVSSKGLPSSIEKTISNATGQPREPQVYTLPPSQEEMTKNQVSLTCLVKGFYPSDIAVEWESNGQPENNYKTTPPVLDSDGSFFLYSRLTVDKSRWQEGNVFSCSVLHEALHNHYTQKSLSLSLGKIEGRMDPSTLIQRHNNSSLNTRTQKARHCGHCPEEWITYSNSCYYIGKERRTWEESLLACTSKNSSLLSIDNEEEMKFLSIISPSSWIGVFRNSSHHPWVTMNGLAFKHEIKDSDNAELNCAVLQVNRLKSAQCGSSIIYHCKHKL
notes: also called hCD86-Fc-NKG2A
Take B2: the binding result was “binds” in [6]; “no binding (tested: about log 2.7 ug/ml (roughly 500 ug/ml))” in [7]; “no binding (tested: about log 2.7 ug/ml (roughly 500 ug/ml))” in experiment [8]; “binds” in [9]; “binds” in experiment [11]. Moreover, the “EC50 (read off the curve)” value in experiment [10] is around 1 µg/mL.
